What was measured:
Test in all cases: two-hybrid library CCmax;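 further: natural log of median RNA to DNA barcode read ratio; higher means stronger binding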
[1] = target: T1, 4H2649-AA; conditions: mean of both orientations
T1 chain: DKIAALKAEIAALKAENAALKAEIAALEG

[2] = target: T2, 4H3410-AA; conditions: mean of both orientations
T2 chain: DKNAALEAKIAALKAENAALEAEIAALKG

[3] = target: T3, 4H850-AA; conditions: mean of both orientations
T3 chain: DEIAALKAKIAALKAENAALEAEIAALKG

[4] = target: T4, 4H3016-AA; conditions: mean of both orientations
T4 chain: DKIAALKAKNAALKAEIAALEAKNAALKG

[5] = target: T5, 4H2473-AA; conditions: mean of both orientations
T5 chain: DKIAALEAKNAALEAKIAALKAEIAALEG

[6] = target: T6, 4H745-AA; conditions: mean of both orientations
T6 chain: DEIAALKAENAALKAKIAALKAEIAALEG

[7] = target: T7, 4H3381-AA; conditions: mean of both orientations
T7 chain: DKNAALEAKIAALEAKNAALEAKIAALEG

[8] = target: T8, 4H1842-AA; conditions: mean of both orientations
T8 chain: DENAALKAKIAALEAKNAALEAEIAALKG

[9] = target: T9, 4H3130-AA
T9 chain: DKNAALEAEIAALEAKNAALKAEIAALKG

[10] = target: T10, 4H629-AA; conditions: mean of both orientations
T10 chain: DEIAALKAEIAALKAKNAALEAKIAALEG

[11] = target: T11, 4H891-AA; conditions: mean of both orientations
T11 chain: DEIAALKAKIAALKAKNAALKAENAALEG

[12] = target: T12, 4H930-AA; conditions: mean of both orientations
T12 chain: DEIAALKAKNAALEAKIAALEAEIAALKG

[13] = target: T13, 4H1579-AA
T13 chain: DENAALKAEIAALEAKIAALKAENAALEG

[14] = target: T14, 4H174-AA; conditions: mean of both orientations
T14 chain: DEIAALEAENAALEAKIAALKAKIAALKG

[15] = target: T15, 4H3697-AA; conditions: mean of both orientations
T15 chain: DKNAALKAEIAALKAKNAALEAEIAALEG

[16] = target: T16, 4H1626-AA; conditions: mean of both orientations
T16 chain: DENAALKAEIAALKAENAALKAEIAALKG

[17] = target: T17, 4H3120-AA; conditions: mean of both orientations
T17 chain: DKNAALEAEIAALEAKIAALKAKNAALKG

[18] = target: T18, 4H3395-AA; conditions: mean of both orientations
T18 chain: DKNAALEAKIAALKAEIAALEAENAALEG

[19] = target: T19, 4H536-AA; conditions: mean of both orientations
T19 chain: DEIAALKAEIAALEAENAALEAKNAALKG

[20] = target: T20, 4H2330-AA; conditions: mean of both orientations
T20 chain: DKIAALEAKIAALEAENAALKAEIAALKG

[21] = target: T21, 4H570-AA; conditions: mean of both orientations
T21 chain: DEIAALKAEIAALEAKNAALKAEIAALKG

[22] = target: T22, 4H3590-AA; conditions: mean of both orientations
T22 chain: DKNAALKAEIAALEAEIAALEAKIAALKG

[23] = target: T23, 4H485-AA; conditions: mean of both orientations
T23 chain: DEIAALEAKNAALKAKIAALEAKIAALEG

[24] = target: T24, 4H2865-AA
T24 chain: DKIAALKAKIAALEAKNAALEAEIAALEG

[25] = target: T25, 4H2389-AA; conditions: mean of both orientations
T25 chain: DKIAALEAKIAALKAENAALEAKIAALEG

[26] = target: T26, 4H1597-AA; conditions: mean of both orientations
T26 chain: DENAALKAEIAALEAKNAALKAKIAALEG

[27] = target: T27, 4H2253-AA; conditions: mean of both orientations
T27 chain: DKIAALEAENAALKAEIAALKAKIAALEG

[28] = target: T28, 4H2162-AA; conditions: mean of both orientations
T28 chain: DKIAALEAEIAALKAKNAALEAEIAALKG

[29] = target: T29, 4H710-AA; conditions: mean of both orientations
T29 chain: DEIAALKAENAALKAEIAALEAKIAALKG

[30] = target: T30, 4H458-AA; conditions: mean of both orientations
T30 chain: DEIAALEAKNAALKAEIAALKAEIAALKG

[31] = target: T31, 4H2725-AA; conditions: mean of both orientations
T31 chain: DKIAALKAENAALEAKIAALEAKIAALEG

[32] = target: T32, 4H797-AA; conditions: mean of both orientations
T32 chain: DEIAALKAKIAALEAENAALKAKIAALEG

[33] = target: T33, 4H94-AA; conditions: mean of both orientations
T33 chain: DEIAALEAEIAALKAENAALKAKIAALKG

[34] = target: T34, 4H1864-AA; conditions: mean of both orientations
T34 chain: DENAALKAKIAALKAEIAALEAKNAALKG

[35] = target: T35, 4H2438-AA; conditions: mean of both orientations
T35 chain: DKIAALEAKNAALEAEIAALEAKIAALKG

[36] = target: T36, 4H2698-AA; conditions: mean of both orientations
T36 chain: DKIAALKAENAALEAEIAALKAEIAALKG

[37] = target: T37, 4H3165-AA; conditions: mean of both orientations
T37 chain: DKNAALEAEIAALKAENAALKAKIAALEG

[38] = target: T38, 4H3009-AA; conditions: mean of both orientations
T38 chain: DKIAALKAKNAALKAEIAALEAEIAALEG

[39] = target: T39, 4H2109-AA; conditions: mean of both orientations
T39 chain: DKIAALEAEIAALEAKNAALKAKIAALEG

[40] = target: T40, 4H3865-AA; conditions: mean of both orientations
T40 chain: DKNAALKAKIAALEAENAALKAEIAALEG

[41] = target: T41, 4H2274-AA; conditions: mean of both orientations
T41 chain: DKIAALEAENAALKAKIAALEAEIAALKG

[42] = target: T42, 4H3753-AA; conditions: mean of both orientations
T42 chain: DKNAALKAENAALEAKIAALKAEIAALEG

[43] = target: T43, 4H1877-AA; conditions: mean of both orientations
T43 chain: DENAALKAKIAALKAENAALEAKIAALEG

[44] = target: T44, 4H909-AA; conditions: mean of both orientations
T44 chain: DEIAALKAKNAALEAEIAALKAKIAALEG

[45] = target: T45, 4H310-AA; conditions: mean of both orientations
T45 chain: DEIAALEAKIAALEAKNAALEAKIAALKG

[46] = target: T46, 4H171-AA; conditions: mean of both orientations
T46 chain: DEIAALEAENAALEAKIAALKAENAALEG

interaction score [1]: -1.11
interaction score [2]: -1.51
interaction score [3]: -1.18
interaction score [4]: 0.0969
interaction score [5]: -1.09
interaction score [6]: 1.21
interaction score [7]: -1.48
interaction score [8]: -2.03
interaction score [9]: -1.12
interaction score [10]: -1.42
interaction score [11]: -1
interaction score [12]: -1.7
interaction score [13]: 0.482
interaction score [14]: -0.805
interaction score [15]: -1.92
interaction score [16]: -1.19
interaction score [17]: 0.595
interaction score [18]: 0.656
interaction score [19]: 0.42
interaction score [20]: -1.81
interaction score [21]: -0.453
interaction score [22]: 1.2
interaction score [23]: -0.986
interaction score [24]: -1.53
interaction score [25]: -1.56
interaction score [26]: -0.651
interaction score [27]: -1.23
interaction score [28]: -1.63
interaction score [29]: -1.33
interaction score [30]: -1.8
interaction score [31]: -1.31
interaction score [32]: -1.46
interaction score [33]: -1.21
interaction score [34]: 2.38
interaction score [35]: -1.18
interaction score [36]: -1.29
interaction score [37]: -1.86
interaction score [38]: -2.01
interaction score [39]: 0.8
interaction score [40]: -1.22
interaction score [41]: -1.24
interaction score [42]: 1.01
interaction score [43]: -0.858
interaction score [44]: -1.94
interaction score [45]: -1.28
interaction score [46]: -1.67
Binder: DENAALKAEIAALEAKIAALKAENAALEG [4H1579-AA]
